In patent publication US20260232827A1 (Zymeworks, published 2026):
Like-named read-outs stand apart in the source and are kept apart here.

T1: human sodium-dependent phosphate transporter 2B (NaPi2b) (human, UniProt O95436 1-690)
T1 sequence: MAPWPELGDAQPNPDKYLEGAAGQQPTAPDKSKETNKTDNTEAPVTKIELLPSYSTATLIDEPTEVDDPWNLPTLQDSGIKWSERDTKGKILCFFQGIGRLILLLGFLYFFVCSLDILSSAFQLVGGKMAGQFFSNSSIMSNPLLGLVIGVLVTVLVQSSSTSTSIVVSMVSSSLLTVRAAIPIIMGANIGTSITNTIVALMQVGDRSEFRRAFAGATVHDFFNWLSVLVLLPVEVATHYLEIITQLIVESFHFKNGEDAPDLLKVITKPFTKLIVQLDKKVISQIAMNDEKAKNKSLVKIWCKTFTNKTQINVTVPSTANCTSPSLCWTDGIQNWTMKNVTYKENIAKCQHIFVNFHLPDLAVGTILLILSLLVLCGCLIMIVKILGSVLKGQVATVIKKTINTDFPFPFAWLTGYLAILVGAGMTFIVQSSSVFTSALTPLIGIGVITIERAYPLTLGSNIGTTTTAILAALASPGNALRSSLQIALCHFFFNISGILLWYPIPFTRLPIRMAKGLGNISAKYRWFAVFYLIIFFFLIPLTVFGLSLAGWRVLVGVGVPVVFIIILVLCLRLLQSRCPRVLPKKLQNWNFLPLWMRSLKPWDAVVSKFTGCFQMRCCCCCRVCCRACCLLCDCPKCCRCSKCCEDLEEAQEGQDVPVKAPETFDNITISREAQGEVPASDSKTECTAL

T2: mouse NaPi2b (mouse, UniProt Q9DBP0 1-697)
T2 construct: Transfected into HEK293-6e cells (clone CL_#13476); also called Ms NaPi2b
T2 sequence: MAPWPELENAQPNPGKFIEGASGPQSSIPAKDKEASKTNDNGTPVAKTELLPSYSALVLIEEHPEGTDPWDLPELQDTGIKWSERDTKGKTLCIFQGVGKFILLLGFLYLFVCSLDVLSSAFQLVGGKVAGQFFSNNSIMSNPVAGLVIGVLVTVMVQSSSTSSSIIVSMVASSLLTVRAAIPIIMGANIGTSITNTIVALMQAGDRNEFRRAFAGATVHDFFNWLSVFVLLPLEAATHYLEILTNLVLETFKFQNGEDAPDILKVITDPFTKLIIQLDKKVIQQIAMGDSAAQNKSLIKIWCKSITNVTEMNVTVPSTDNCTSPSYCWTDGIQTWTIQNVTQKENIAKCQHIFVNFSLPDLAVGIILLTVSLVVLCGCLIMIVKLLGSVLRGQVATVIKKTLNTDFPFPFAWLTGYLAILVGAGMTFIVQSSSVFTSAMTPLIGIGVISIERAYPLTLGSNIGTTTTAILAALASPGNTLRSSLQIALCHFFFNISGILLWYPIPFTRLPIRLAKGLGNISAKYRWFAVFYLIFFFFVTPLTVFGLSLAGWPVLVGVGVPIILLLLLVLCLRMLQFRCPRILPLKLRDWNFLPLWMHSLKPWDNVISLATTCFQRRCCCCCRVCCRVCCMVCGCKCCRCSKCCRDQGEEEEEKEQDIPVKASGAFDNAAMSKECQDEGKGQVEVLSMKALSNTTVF

T3: cynomolgus monkey NaPi2b (cynomolgus monkey, UniProt O95436 1-690 (human entry))
T3 construct: Transfected into HEK293-6e cells (clone CL_#13433); also called Cy NaPi2b; Cyno NaPi2b
T3 chain: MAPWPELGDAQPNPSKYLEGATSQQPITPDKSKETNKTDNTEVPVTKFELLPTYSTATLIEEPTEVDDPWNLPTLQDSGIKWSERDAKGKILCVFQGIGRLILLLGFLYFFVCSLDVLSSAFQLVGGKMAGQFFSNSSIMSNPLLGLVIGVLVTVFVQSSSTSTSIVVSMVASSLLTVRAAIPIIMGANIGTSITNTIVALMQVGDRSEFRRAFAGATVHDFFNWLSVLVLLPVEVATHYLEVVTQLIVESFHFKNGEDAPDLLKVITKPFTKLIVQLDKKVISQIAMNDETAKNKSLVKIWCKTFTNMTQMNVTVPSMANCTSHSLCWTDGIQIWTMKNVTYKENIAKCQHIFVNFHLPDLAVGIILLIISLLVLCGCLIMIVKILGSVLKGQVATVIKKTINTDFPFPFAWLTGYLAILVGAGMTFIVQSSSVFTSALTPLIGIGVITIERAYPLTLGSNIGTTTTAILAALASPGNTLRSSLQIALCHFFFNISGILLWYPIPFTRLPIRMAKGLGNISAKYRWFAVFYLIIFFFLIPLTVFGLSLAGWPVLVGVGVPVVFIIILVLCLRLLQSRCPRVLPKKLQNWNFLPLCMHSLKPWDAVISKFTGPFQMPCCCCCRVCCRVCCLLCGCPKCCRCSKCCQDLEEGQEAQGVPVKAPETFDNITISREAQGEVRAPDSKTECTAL

B1: v22277 (palivizumab) (antibody, human IgG1, kappa)
heavy 1: GQVTLRESGPALVKPTQTLTLTCTFSGFSLSTSGMSVGWIRQPPGKALEWLADIWWDDKKDYNPSLKSRLTISKDTSKNQVVLKVTNMDPADTATYYCARSMITNWYFDVWGAGTTVTVSSASTKGPSVFPLAPSSKSTSGGTAALGCLVKDYFPEPVTVSWNSGALTSGVHTFPAVLQSSGLYSLSSVVTVPSSSLGTQTYICNVNHKPSNTKVDKKVEPKSCDKTHTCPPCPAPELLGGPSVFLFPPKPKDTLMISRTPEVTCVVVDVSHEDPEVKFNWYVDGVEVHNAKTKPREEQYNSTYRVVSVLTVLHQDWLNGKEYKCKVSNKALPAPIEKTISKAKGQPREPQVYVYPPSRDELTKNQVSLTCLVKGFYPSDIAVEWESNGQPENNYKTTPPVLDSDGSFALVSKLTVDKSRWQQGNVFSCSVMHEALHNHYTQKSLSLSPG
heavy 2: not shown
light: GDIQMTQSPSTLSASVGDRVTITCKSQLSVGYMHWYQQKPGKAPKLLIYDTSKLASGVPSRFSGSGSGTEFTLTISSLQPDDFATYYCFQGSGYPFTFGGGTKLEIKRTVAAPSVFIFPPSDEQLKSGTASVVCLLNNFYPREAKVQWKVDNALQSGNSQESVTEQDSKDSTYSLSSTLTLSKADYEKHKVYACEVTHQGLSSPVTKSFNRGEC
B2: v38591-MC-GGFG-AM-Compound 139 DAR 8 (antibody, human IgG1, kappa)
heavy: not shown
light: DVQMTQSPSSLSASVGDRVTITCRASQDVYSYLNWYQQKPGKAVKLLIYYTSRLQSGVPSRFSGSGSGTDYTLTISSLQPEDFATYYCQQYNIFPWTFGQGTKLEIKRTVAAPSVFIFPPSDEQLKSGTASVVCLLNNFYPREAKVQWKVDNALQSGNSQESVTEQDSKDSTYSLSSTLTLSKADYEKHKVYACEVTHQGLSSPVTKSFNRGEC
modifications: drug-linker MC-GGFG-AM-Compound 139 on cysteine thiols after TCEP reduction, positions not given; DAR 8 for the whole antibody
notes: Antibody-drug conjugate of v38591 (IgG1/kappa); also called v38593
B3: v29456-MC-GGFG-AM-Compound 139 DAR 8 (antibody, human IgG1, kappa)
heavy: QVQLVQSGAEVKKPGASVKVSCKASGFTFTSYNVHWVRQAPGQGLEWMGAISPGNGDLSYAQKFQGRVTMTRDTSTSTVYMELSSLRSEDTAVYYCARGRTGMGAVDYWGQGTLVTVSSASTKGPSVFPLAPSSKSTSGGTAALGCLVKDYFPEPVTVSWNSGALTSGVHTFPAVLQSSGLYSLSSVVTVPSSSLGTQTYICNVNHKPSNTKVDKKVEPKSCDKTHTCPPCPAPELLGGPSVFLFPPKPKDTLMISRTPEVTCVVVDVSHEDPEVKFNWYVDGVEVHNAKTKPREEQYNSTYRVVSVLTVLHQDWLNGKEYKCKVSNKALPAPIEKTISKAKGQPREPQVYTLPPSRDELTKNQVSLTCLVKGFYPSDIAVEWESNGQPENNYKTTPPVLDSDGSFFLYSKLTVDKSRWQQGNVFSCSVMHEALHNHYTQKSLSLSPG
light: B2 light
modifications: drug-linker MC-GGFG-AM-Compound 139 on cysteine thiols after TCEP reduction, positions not given; DAR 8.0 for the whole antibody
B4: v38591-MC-GGFG-AM-Compound 139 DAR 4 (antibody, human IgG1, kappa)
heavy: not shown
light: B2 light
modifications: drug-linker MC-GGFG-AM-Compound 139 on cysteine thiols after TCEP reduction, positions not given; DAR 4 for the whole antibody
notes: Antibody-drug conjugate of v38591 (IgG1/kappa)
B5: v18993 (lifastuzumab) (antibody, human IgG1, kappa)
heavy 1: GEVQLVESGGGLVQPGGSLRLSCAASGFSFSDFAMSWVRQAPGKGLEWVATIGRVAFHTYYPDSMKGRFTISRDNSKNTLYLQMNSLRAEDTAVYYCARHRGFDVGHFDFWGQGTLVTVSSASTKGPSVFPLAPSSKSTSGGTAALGCLVKDYFPEPVTVSWNSGALTSGVHTFPAVLQSSGLYSLSSVVTVPSSSLGTQTYICNVNHKPSNTKVDKKVEPKSCDKTHTCPPCPAPELLGGPSVFLFPPKPKDTLMISRTPEVTCVVVDVSHEDPEVKFNWYVDGVEVHNAKTKPREEQYNSTYRVVSVLTVLHQDWLNGKEYKCKVSNKALPAPIEKTISKAKGQPREPQVYVYPPSRDELTKNQVSLTCLVKGFYPSDIAVEWESNGQPENNYKTTPPVLDSDGSFALVSKLTVDKSRWQQGNVFSCSVMHEALHNHYTQKSLSLSPG
heavy 2: not shown
light: GDIQMTQSPSSLSASVGDRVTITCRSSETLVHSSGNTYLEWYQQKPGKAPKLLIYRVSNRFSGVPSRFSGSGSGTDFTLTISSLQPEDFATYYCFQGSFNPLTFGQGTKVEIKRTVAAPSVFIFPPSDEQLKSGTASVVCLLNNFYPREAKVQWKVDNALQSGNSQESVTEQDSKDSTYSLSSTLTLSKADYEKHKVYACEVTHQGLSSPVTKSFNRGEC
notes: Two different heavy chains (heterodimeric Fc)

Assays:
[1] = molecular target: T1, human sodium-dependent phosphate …; assay: cell-based or functional assay
[2] = molecular target: T1, human sodium-dependent phosphate …; assay: flow cytometry on HEK293-6e cells transfected with human NaPi2b
Procedure: (§1) Following transfection, cells were seeded at 50,000 cells/well in conical-bottom 96-well plates and treated with test antibody or antibody-drug conjugate for 24 hours at 4° C. to prevent internalization. […] Following incubation and washing, fluorescence was detected by flow cytometry on a BD LSRFortessa™ Cell Analyzer (BD Biosciences, Franklin Lake, NJ) with 1,000 minimum events collected per well.

mouse NaPi2b [3] = molecular target: T2, mouse NaPi2b; assay: flow cytometry on HEK293-6e cells transfected with mouse NaPi2b
Procedure: as §1

mouse NaPi2b [4] = molecular target: T2, mouse NaPi2b; assay: flow cytometry on HEK293-6e cells transfected with mouse NaPi2b, apparent Kd
Procedure: as §1

[5] = molecular target: T1, human sodium-dependent phosphate …; assay: cell-based or functional assay; remark: listed apart in the source
[6] = molecular target: T1, human sodium-dependent phosphate …; assay: flow cytometry on OVCAR-3 cells, 24 h at 4 C, anti-human IgG Fc AF647
Procedure: (§2) Following incubation and washing, fluorescence was detected by flow cytometry on a BD LSRFortessa™ Cell Analyzer (BD Biosciences, Franklin Lake, NJ) with 1,000 minimum events collected per well.

[7] = molecular target: T1, human sodium-dependent phosphate …; assay: flow cytometry on IGROV-1 cells, 24 h at 4 C, anti-human IgG Fc AF647
Procedure: as §2

cynomolgus monkey NaPi2b [8] = molecular target: T3, cynomolgus monkey NaPi2b; assay: flow cytometry on HEK293-6e cells transfected with cynomolgus NaPi2b, apparent Kd
Procedure: as §1

[9] = molecular target: T1, human sodium-dependent phosphate …; assay: flow cytometry on HEK293-6e cells transfected with human NaPi2b; remark: listed apart in the source
Procedure: as §1

cynomolgus monkey NaPi2b [10] = molecular target: T3, cynomolgus monkey NaPi2b; assay: flow cytometry on HEK293-6e cells transfected with cynomolgus NaPi2b
Procedure: as §1

[11] = molecular target: T1, human sodium-dependent phosphate …; assay: cell-based or functional assay; remark: listed apart in the source
[12] = molecular target: T1, human sodium-dependent phosphate …; assay: cell-based or functional assay; remark: listed apart in the source
[13] = molecular target: T1, human sodium-dependent phosphate …; assay: cell-based or functional assay; remark: listed apart in the source
[14] = molecular target: T1, human sodium-dependent phosphate …; assay: flow cytometry on HEK293-6e cells transfected with human NaPi2b, apparent Kd
Procedure: as §1

[15] = molecular target: T1, human sodium-dependent phosphate …; assay: as above; remark: listed apart in the source
Procedure: as §1

Binder	Bmax [2]	Bmax (mouse NaPi2b [3])	Kd (mouse NaPi2b [4]) [nM]	Internalized Fluorescence in OVCAR-3, 15 min, 100 nM [5]	Internalized Fluorescence in OVCAR-3, 4 hr, 100 nM [5]	Internalized Fluorescence in OVCAR-3, 16 hr, 100 nM [5]	Internalized Fluorescence in OVCAR-3, 24 hr, 100 nM [5]	Bmax [6]	Kd [6] [nM]	Bmax [7]	Kd [7] [nM]	Kd (cynomolgus monkey NaPi2b [8]) [nM]	Bmax [9]	Bmax (cynomolgus monkey NaPi2b [10])	other results
B1	–	–	–	–	–	–	–	–	–	–	–	–	–	–	Internalized Fluorescence Fold-Over Palivizumab, IGROV-1, 4 hrs, 10 nM [1]: 1 fold; Internalized Fluorescence Fold-Over Palivizumab, OVCAR-3, 4 hrs, 10 nM [1]: 1 fold; Internalized Fluorescence Fold-Over Palivizumab, OVCAR-3, 24 hrs, 10 nM [1]: 1 fold
B2	1530	396	0.64	7380	15600	16800	26700	14300	2.71	20500	1.6	0.47	1530	408	–
B3	–	–	–	–	–	–	–	–	–	–	–	–	–	–	EC50, in vitro cytotoxicity, IGROV-1 spheroids [11]: 0.31 nM; EC50, in vitro cytotoxicity, TOV-21G:HDFa (1:1) spheroids [11]: 0.24 nM; EC50, in vitro cytotoxicity, 2D monolayer, IGROV-1 [12]: 0.39 nM; EC50, in vitro cytotoxicity, 2D monolayer, TOV-21G [12]: 4.3 nM; EC50, in vitro cytotoxicity, H441 spheroids [13]: 1.57 nM; EC50, in vitro cytotoxicity, IGROV-1 spheroids [13]: 0.55 nM; EC50, in vitro cytotoxicity, TOV-21G spheroids [13]: 0.54 nM
B4	1260	538	1.49	–	–	–	–	15500	2.52	22700	1.7	0.36	1260	459	–
B5	678	–	–	2480	8750	8600	13900	14500	5.79	20000	2.69	4.71	678	424	Kd [14]: 5.76 nM; Kd [15]: 5.76 nM
